Assay results reported in patent publication US20250296971A1, “GASTRIC INHIBITORY PEPTIDE RECEPTOR LIGANDS” (priority 2021, published 2025).
*1 amine or outer side, *2 acyl side, *3 side chain or, on linkers, in order; H or OH if unused. Bridges are numbered along the chain shown (N, C = ends). Primed or numbered codes have the meaning given here. [ ]: non-standard residue; d: D form. The star is where a group is joined. TBMB(SCH2CH2NH-DOTA) = O=C(O)CN1CCN(CC(=O)O)CCN(CC(=O)NCCSCc2cc(C[*:1])cc(C[*:2])c2)CCN(CC(=O)O)CC1; Ttds = 1,13-diamino-4,7,10-trioxatridecan-succinamic acid, NCCCOCCOCCOCCCNC(=O)CCC(=O)*; DOTA(In) = O=C1CN2CCN3CCN(CC(=O)*)CCN(CC2)CC(=O)[O][In]([O]1)[O]C(=O)C3; DOTA(Lu) = O=C1CN2CCN3CCN(CC(=O)*)CCN(CC2)CC(=O)[O][Lu]([O]1)[O]C(=O)C3; NH(1-deoxy-D-glucityl) = OC[C@@H](O)[C@@H](O)[C@H](O)[C@@H](O)CN*; (dE)(AGLU) = D-glutamic acid bearing 1-amino-1-deoxy-D-glucitol; APAc″ = 4-amino-1-carboxymethylpiperidine, NC1CCN(CC(=O)*)CC1; dE(AGLU) = D-glutamic acid bearing 1-amino-1-deoxy-D-glucitol; Pro(trans-4-NH2) = O=C([C@@H]1C[C@@H](N[*:3])CN1[*:1])[*:2]; DOTA = O=C(O)CN1CCN(CC(=O)O)CCN(CC(=O)*)CCN(CC(=O)O)CC1; MeO2kDaPEGAc = polydisperse 2 kDa PEG (methoxy, acetyl); 3MeBn = 3-methyl-benzylidene (derived from 1,3-xylene); 2Lut = 2,6-lutidylidene bridge between two thiols; N(CH2CH2CO)Gly = O=C(CN(CCC(=O)[*:3])[*:1])[*:2]; Trp(5-Br) = N[C@@H](Cc1c[nH]c2ccc(Br)cc12)C(=O)O; Trp(5-Cl) = N[C@@H](Cc1c[nH]c2ccc(Cl)cc12)C(=O)O; Pyridine(2,6-diCH2) = c1cc(C[*:1])nc(C[*:2])c1; 2Lut″ = 2,6-lutidylidene linking two thiols; APAc = 4-amino-1-carboxymethylpiperidine; mXylylene = c1cc(C[*:1])cc(C[*:2])c1; LuDOTA = DOTA Lutetium(III) complex; Glutaryl = O=C(CCCC(=O)[*:2])[*:1]; AGLU = 1-amino-1-deoxy-D-glucitol; Hyp = O=C(O)[C@@H]1C[C@@H](O)CN1; Cysteamide = C(CS[*:3])N[*:1]; Suc = O=C(CCC(=O)[*:2])[*:1]; ZnDOTA = DOTA zinc complex; αMeS = C[C@](N)(CO)C(=O)O; Api = NC1(C(=O)O)CCNCC1; Thp = NC1(C(=O)O)CCOCC1; Aib = CC(C)(N)C(=O)O; Sar = CNCC(=O)O

Target: human Gastric Inhibitory Peptide Receptor (human) (UniProt P48546)
Assay: FACS competition with GIP-057 on CHO-K1-hGIPR cells; pIC50 category A: >8.0

Sequence of human Gastric Inhibitory Peptide Receptor (human) (P48546 22-466 limits assumed): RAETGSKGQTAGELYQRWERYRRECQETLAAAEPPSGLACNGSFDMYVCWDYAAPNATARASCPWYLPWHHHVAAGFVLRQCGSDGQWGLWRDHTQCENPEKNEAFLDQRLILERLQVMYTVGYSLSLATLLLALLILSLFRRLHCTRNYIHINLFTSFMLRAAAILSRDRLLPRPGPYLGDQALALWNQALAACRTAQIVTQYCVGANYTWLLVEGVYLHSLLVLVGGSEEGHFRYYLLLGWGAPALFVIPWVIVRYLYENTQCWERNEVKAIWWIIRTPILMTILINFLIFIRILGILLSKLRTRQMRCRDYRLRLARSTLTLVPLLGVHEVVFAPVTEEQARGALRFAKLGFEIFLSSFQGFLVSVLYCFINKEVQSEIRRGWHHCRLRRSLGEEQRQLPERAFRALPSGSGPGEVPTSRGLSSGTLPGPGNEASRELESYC

Binder	pIC50 [pic50]
Ac-DW[Trp(5-Cl)][Hyp]E[dL]C[Api](DOTA)LIC-NH2 (linker 7-11 via Pyridine(2,6-diCH2)) [Ac-Asp-Trp-5Clw-Hyp-Glu-leu-[Cys(2Lut)-Apc(DOTA)-Leu-Ile-Cys]-NH2]	> 8
{DOTA(In)-Ttds}-DW[Trp(5-Cl)]PE[dL]C[Aib]LI[Cysteamide] (linker 7-11 via 2Lut; also: DOTA as indium complex (InDOTA)) [InDOTA-Ttds-Asp-Trp-5Clw-Pro-Glu-leu-[Cys(2Lut)-Aib-Leu-Ile-AET]]	> 8
Ac-DW[Trp(5-Cl)][Hyp]E[dL]C[Thp]LIC-{APAc-(dE)(AGLU)-NH2} (linker 7-11 via Pyridine(2,6-diCH2)) [Ac-Asp-Trp-5Clw-Hyp-Glu-leu-[Cys(2Lut)-Thp-Leu-Ile-Cys]-APAc-glu(AGLU)-NH2]	> 8
{AGLU-Glutaryl}-DW[Trp(5-Cl)][Hyp]E[dL]C[Thp]LIC-{APAc-dE(AGLU)-NH2} (linker 7-11 via Pyridine(2,6-diCH2)) [AGLU-Glutar-Asp-Trp-5Clw-Hyp-Glu-leu-[Cys(2Lut)-Thp-Leu-Ile-Cys]-APAc-glu(AGLU)-NH2]	> 8
{AGLU-Glutaryl-APAc}-DW[Trp(5-Br)][Pro(trans-4-NH2)]E[dL]C[Api](DOTA)LIC-{APAc-dE(AGLU)-NH2} (linker 7-11 via Pyridine(2,6-diCH2)) [AGLU-Glutar-APAc-Asp-Trp-5Brw-Tap-Glu-leu-[Cys(2Lut)-Apc(DOTA)-Leu-Ile-Cys]-APAc-glu(AGLU)-NH2]	> 8
{LuDOTA-APAc″}-DW[Trp(5-Cl)][Hyp]E[dL]C[Thp]LI[Cysteamide] (linker 7-11 via Pyridine(2,6-diCH2)) [LuDOTA-APAc-Asp-Trp-5Clw-Hyp-Glu-leu-[Cys(2Lut)-Thp-Leu-Ile-AET]]	> 8
{AGLU-Glutaryl}-DW[Trp(5-Cl)][Hyp]E[dL]C[Thp]LIC-NH2 (linker 7-11 via Pyridine(2,6-diCH2)) [AGLU-Glutar-Asp-Trp-5Clw-Hyp-Glu-leu-[Cys(2Lut)-Thp-Leu-Ile-Cys]-NH2]	> 8
{AGLU-Glutaryl-APAc}-DW[Trp(5-Cl)][Pro(trans-4-NH2)]E[dL]C[Api](DOTA)LIC-{APAc-dE(AGLU)-NH2} (linker 7-11 via Pyridine(2,6-diCH2)) [AGLU-Glutar-APAc-Asp-Trp-5Clw-Tap-Glu-leu-[Cys(2Lut)-Apc(DOTA)-Leu-Ile-Cys]-APAc-glu(AGLU)-NH2]	> 8
DWXXEXCXLIC (N-term AGLU-Glutar; 5Brw; Tap; leu (D-Leu); thioether cycle [Cys(2Lut)..Cys]; Apc(DOTA); C-term APAc-glu(AGLU)-NH2) [AGLU-Glutar-Asp-Trp-5Brw-Tap-Glu-leu-[Cys(2Lut)-Apc(DOTA)-Leu-Ile-Cys]-APAc-glu(AGLU)-NH2]	> 8
Ac-DW[Trp(5-Cl)][Pro(trans-4-NH2)]E[dL]C[Api](DOTA)LIC-NH2 (linker 7-11 via 2Lut″) [Ac-Asp-Trp-5Clw-Tap-Glu-leu-[Cys(2Lut)-Apc(DOTA)-Leu-Ile-Cys]-NH2]	> 8
Ac-DW[Trp(5-Cl)][Pro(trans-4-NH2)]E[dL]C[Thp]LIC-NH2 (linker 7-11 via Pyridine(2,6-diCH2); not fully specified (residue 4); printed as Ac-Asp-Trp-5Clw-Tap(AGLU-Glutar)-Glu-leu-[Cys(2Lut)-Thp-Leu-Ile-Cys]-NH2) [Ac-Asp-Trp-5Clw-Tap(AGLU-Glutar)-Glu-leu-[Cys(2Lut)-Thp-Leu-Ile-Cys]-NH2]	> 8
{AGLU-Glutaryl}-DW[Trp(5-Cl)][Hyp]E[dL]C[Api](ZnDOTA)LI[Cysteamide] (linker 7-11 via Pyridine(2,6-diCH2)) [AGLU-Glutar-Asp-Trp-5Clw-Hyp-Glu-leu-[Cys(2Lut)-Apc(ZnDOTA)-Leu-Ile-AET]]	> 8
Suc-W[Trp(5-Cl)][Hyp]E[dL]C[Thp]LIC-{APAc-Lys(InDOTA)-NH2} (linker 6-10 via 2Lut; also: In complex of DOTA) [HO-Succinyl-Trp-5Clw-Hyp-Glu-leu-[Cys(2Lut)-Thp-Leu-Ile-Cys]-APAc-Lys(InDOTA)-NH2]	> 8
Suc-W[Trp(5-Cl)][Hyp]E[dL]C[Api](DOTA(Lu))LI[Cysteamide] (linker 6-10 via 2Lut; also: Lu complex of DOTA) [HO-Succinyl-Trp-5Clw-Hyp-Glu-leu-[Cys(2Lut)-Apc(LuDOTA)-Leu-Ile-AET]]	> 8
Suc-W[Trp(5-Cl)][Hyp]E[dL]C[Thp]LIC-{APAc-Lys(LuDOTA)-NH2} (linker 6-10 via 2Lut; also: Lu complex of DOTA) [HO-Succinyl-Trp-5Clw-Hyp-Glu-leu-[Cys(2Lut)-Thp-Leu-Ile-Cys]-APAc-Lys(LuDOTA)-NH2]	> 8
{LuDOTA-Ttds}-DW[Trp(5-Cl)]PE[dL]C[Aib]LI[Cysteamide] (linker 7-11 via Pyridine(2,6-diCH2)) [LuDOTA-Ttds-Asp-Trp-5Clw-Pro-Glu-leu-[Cys(2Lut)-Aib-Leu-Ile-AET]]	> 8
Ac-DW[Trp(5-Cl)][N(CH2CH2CO)Gly](NH(1-deoxy-D-glucityl))E[dL]C[Thp]LIC-NH2 (linker 7-11 via Pyridine(2,6-diCH2)) [Ac-Asp-Trp-5Clw-Nglu(AGLU)-Glu-leu-[Cys(2Lut)-Thp-Leu-Ile-Cys]-NH2]	> 8

Second part, the binder after the results:

pIC50 [pic50]	Binder
> 8	{DOTA(In)-Ttds}-DW[Trp(5-Cl)]PE[dL]C[Thp]LI[Cysteamide] (linker 7-11 via mXylylene; also: indium(III) complexed in DOTA) [InDOTA-Ttds-Asp-Trp-5Clw-Pro-Glu-leu-[Cys(3MeBn)-Thp-Leu-Ile-AET]]
> 8	{DOTA(In)-Ttds}-DW[Trp(5-Cl)][Sar]E[dL]C[Aib]LI[Cysteamide] (linker 7-11 via 3MeBn; also: DOTA as indium complex (InDOTA)) [InDOTA-Ttds-Asp-Trp-5Clw-Nmg-Glu-leu-[Cys(3MeBn)-Aib-Leu-Ile-AET]]
> 8	{LuDOTA-Ttds}-DW[Trp(5-Cl)]PE[dL]C[Thp]LI[Cysteamide] (linker 7-11 via mXylylene) [LuDOTA-Ttds-Asp-Trp-5Clw-Pro-Glu-leu-[Cys(3MeBn)-Thp-Leu-Ile-AET]]
> 8	{LuDOTA-APAc″}-DW[Trp(5-Cl)]PE[dL]C[Aib]LI[Cysteamide] (linker 7-11 via mXylylene) [LuDOTA-APAc-Asp-Trp-5Clw-Pro-Glu-leu-[Cys(3MeBn)-Aib-Leu-Ile-AET]]
> 8	{DOTA(In)-Ttds}-DW[Trp(5-Cl)]PE[dL]C[Aib]LI[Cysteamide] (linker 7-11 via 3MeBn; also: DOTA as indium complex (InDOTA)) [InDOTA-Ttds-Asp-Trp-5Clw-Pro-Glu-leu-[Cys(3MeBn)-Aib-Leu-Ile-AET]]
> 8	MeO2kDaPEGAc-DW[Trp(5-Cl)][Hyp]E[dL]C[Thp]LIC-{dK(DOTA)-NH2} (linker 7-11 via Pyridine(2,6-diCH2)) [MeO2kDaPEGAc-Asp-Trp-5Clw-Hyp-Glu-leu-[Cys(2Lut)-Thp-Leu-Ile-Cys]-lys(DOTA)-NH2]
> 8	{LuDOTA-Ttds}-DW[Trp(5-Cl)]PE[dL]C[αMeS]LI[Cysteamide] (linker 7-11 via mXylylene) [LuDOTA-Ttds-Asp-Trp-5Clw-Pro-Glu-leu-[Cys(3MeBn)-Ams-Leu-Ile-AET]]
> 8	{LuDOTA-Ttds}-DW[Trp(5-Cl)][Sar]E[dL]C[Aib]LI[Cysteamide] (linker 7-11 via mXylylene) [LuDOTA-Ttds-Asp-Trp-5Clw-Nmg-Glu-leu-[Cys(3MeBn)-Aib-Leu-Ile-AET]]
> 8	{LuDOTA-Ttds}-DW[Trp(5-Cl)][Hyp]E[dL]C[Aib]LI[Cysteamide] (linker 7-11 via mXylylene) [LuDOTA-Ttds-Asp-Trp-5Clw-Hyp-Glu-leu-[Cys(3MeBn)-Aib-Leu-Ile-AET]]
> 8	{DOTA(In)-Ttds}-DW[Trp(5-Cl)]PE[dL]C[αMeS]LI[Cysteamide] (linker 7-11 via 3MeBn; also: DOTA as indium complex (InDOTA)) [InDOTA-Ttds-Asp-Trp-5Clw-Pro-Glu-leu-[Cys(3MeBn)-Ams-Leu-Ile-AET]]
> 8	Ac-DW[Trp(5-Cl)][Hyp]E[dL]C[Thp]LIC-NH2 (linker 7-11 via TBMB(SCH2CH2NH-DOTA)) [Ac-Asp-Trp-5Clw-Hyp-Glu-leu-[Cys(tMeBn(DOTA-AET))-Thp-Leu-Ile-Cys]-NH2]
